Data on one molecule can be found in paper PMC12641570, “Surface‐modified protein crowders influence mutant huntingtin exon 1 aggregation via crowding effects, crowder association, and crowder solution stability” (Protein Science : A Publication of the Protein Society, 2025).

For this assay, the target named is T1, bovine serum albumin cationized by reaction with ethylenediamine, net surface charge +78e (BSA +78e) (bovine, UniProt P02769 25-607, reacted with ethylenediamine; net surface charge +78e (±3e)).
T1 construct: bovine serum albumin (BSA), 66 kDa protein; Chemically surface-modified; DLS radius is 16 nm, from which the authors infer oligomers; also called positive BSA (+78e); cationized BSA; source: BSA modified by reaction with ethylenediamine (published procedure); chemicals bought: Sigma‐Aldrich unless mentioned otherwise
Nature of the assay: MST; NanoTemper Monolith; about 10 μM mHttex1‐VC (target, mCherry fluorescence read) with different concentrations of BSA (ligand); within 1 h after cleaving MBP; apparent. The following applies: both partners purified.

B1: mutant huntingtin exon 1 (45Q) fused to mVenus/mCherry (mHttex1‐VC), after cleavage of MBP (domain or fragment)
chain: MATLEKLMKAFESLKSFQQQQQQQQQQQQQQQQQQQQQQQQQQQQQQQQQQQQQQQQQQQQQPPPPPPPPPPPQLPQPPPQAQPLLPQPQPPPPPPPPPPGPAVAEEPLHRP
As for B1, the Kd is more than 1 mM.
